Measurements published in US12590147 (OBLIQUE THERAPEUTICS, dated 2026).
Numbering of substitutions follows the chain as printed.

Key:
[1] = target: T1, OTV5-OVA (human, UniProt P01012 2-386 (chicken entry), (Pra-) at the N-terminus; C-terminal amide (-CONH2); cyclic; conjugated to the carrier via N-terminal Cys as stated in Example 4); assay: monoclonal phage ELISA, replicate 2
T1 sequence (peptide): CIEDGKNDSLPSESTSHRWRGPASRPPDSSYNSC
T1 sequence: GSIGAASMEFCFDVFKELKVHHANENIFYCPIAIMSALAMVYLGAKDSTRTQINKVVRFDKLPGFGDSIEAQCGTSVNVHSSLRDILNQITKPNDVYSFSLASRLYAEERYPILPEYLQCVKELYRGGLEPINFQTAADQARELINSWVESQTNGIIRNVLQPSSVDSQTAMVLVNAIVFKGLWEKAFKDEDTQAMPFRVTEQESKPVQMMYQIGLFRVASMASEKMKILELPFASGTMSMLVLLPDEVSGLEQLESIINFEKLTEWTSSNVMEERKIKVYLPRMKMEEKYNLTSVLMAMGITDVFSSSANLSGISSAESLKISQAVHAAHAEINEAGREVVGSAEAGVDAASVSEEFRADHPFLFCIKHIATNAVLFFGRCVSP
Method: (§1) Single *E. coli* clones were picked randomly selected during the biopanning step and cultured. Supernatants containing phage were prepared and purified. ELISA plates were coated with antigens conjugated to carriers or carriers alone (control), followed by washing, blocking, washing and addition of purified phage. After additional washing, bound phage was detected using anti-phage-HRP antibody.
(§2) This example describes the production of a monoclonal antibody by phage display. The phage library used in this case was a commercially available human naïve LiAb-Fab library (high diversity of 2×10E^10 variants). After 4 rounds of biopanning and ELISA tests, 80 clones were selected and 5 different sequences were identified within this group of phage clones, represented by R4P1-C1, #1, #2, #3, and #4. Each of these phage clones were tested by ELISA for binding to each of the individual peptides OTV3, OTV4, and OTV5 each coupled to either BSA, OVA or KLH (a total of 9 peptide-conjugates). This is an important confirmation step to ensure clone specificity because due to their nature phages can sometimes bind unspecifically. In the ELISA tests (monoclonal phage ELISA tests) one phage Fab clone, R4P1-C1, bound specifically and strongly to all three of the peptides (all nine of the peptide-carrier conjugates), whereas the other phage Fab clones appeared to be non-specific binders (see Table GG below, all phages were tested at the same concentration).

[2] = target: T2, OTV4-KLH (human; keyhole limpet, conjugated to the carrier via N-terminal Cys ; chain 1 pos 1: Cys chemically coupled to the KLH carrier (written C); linear peptide); assay: monoclonal phage ELISA, replicate 2
T2 peptide: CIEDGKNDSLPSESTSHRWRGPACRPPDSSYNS
Method: as §1, §2

[3] = target: T3, OTV4-BSA (human; bovine, conjugated to the carrier via N-terminal Cys); assay: monoclonal phage ELISA, replicate 2
T3 sequence (P02769 25-607 limits assumed): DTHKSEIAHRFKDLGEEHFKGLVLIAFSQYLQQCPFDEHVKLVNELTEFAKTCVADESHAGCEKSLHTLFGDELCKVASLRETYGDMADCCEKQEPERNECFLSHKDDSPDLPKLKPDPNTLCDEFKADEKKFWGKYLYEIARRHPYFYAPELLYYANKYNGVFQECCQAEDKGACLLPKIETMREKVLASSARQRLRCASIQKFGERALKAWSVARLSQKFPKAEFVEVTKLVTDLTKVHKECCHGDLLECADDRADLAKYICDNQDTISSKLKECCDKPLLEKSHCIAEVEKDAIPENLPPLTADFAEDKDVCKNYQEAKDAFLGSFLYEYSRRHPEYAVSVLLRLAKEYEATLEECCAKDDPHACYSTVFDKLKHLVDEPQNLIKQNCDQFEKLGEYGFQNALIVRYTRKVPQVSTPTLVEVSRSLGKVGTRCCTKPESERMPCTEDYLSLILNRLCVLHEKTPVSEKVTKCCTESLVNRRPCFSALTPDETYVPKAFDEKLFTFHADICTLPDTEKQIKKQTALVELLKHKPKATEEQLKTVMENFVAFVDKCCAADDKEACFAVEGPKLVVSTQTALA
Method: as §1, §2

[4] = target: T4, OTV4-OVA (human, UniProt P01012 2-386 (chicken entry), conjugated to the carrier via N-terminal Cys); assay: monoclonal phage ELISA, replicate 2
T4 sequence (peptide): T2 peptide
T4 sequence: T1 sequence
Method: as §1, §2

[5] = target: T5, OTV3-KLH (human; keyhole limpet, conjugated to the carrier via N-terminal Cys ; chain 1 pos 1: Cys chemically coupled to the KLH carrier (written C); linear peptide); assay: monoclonal phage ELISA, replicate 2
T5 peptide: T2 peptide with C24S
Method: as §1, §2

[6] = target: T6, OTV5-BSA (human; bovine, (Pra-) at the N-terminus; C-terminal amide (-CONH2); cyclic; conjugated to the carrier via N-terminal Cys as stated in Example 4); assay: monoclonal phage ELISA, replicate 2
T6 sequence (P02769 25-607 limits assumed): as above
Method: as §1, §2

[7] = target: T7, OTV3-OVA (human, UniProt P01012 2-386 (chicken entry), conjugated to the carrier via N-terminal Cys); assay: monoclonal phage ELISA, replicate 2
T7 sequence (peptide): T2 peptide with C24S
T7 sequence: T1 sequence
Method: as §1, §2

[8] = target: T8, OTV5-KLH (human; keyhole limpet, (Pra-) at the N-terminus; C-terminal amide (-CONH2); cyclic; conjugated to the carrier via N-terminal Cys as stated in Example 4 ; chain 1: propargyl group (Pra-) on the N-terminus before Cys1, not …); assay: monoclonal phage ELISA, replicate 2
T8 peptide: T1 sequence (peptide)
Method: as §1, §2

[9] = target: T9, OTV3-BSA (human; bovine, conjugated to the carrier via N-terminal Cys); assay: monoclonal phage ELISA, replicate 2
T9 sequence (P02769 25-607 limits assumed): as above
Method: as §1, §2

[10] = target: T1, OTV5-OVA; assay: monoclonal phage ELISA, replicate 1
Method: as §1, §2

[11] = target: T2, OTV4-KLH; assay: monoclonal phage ELISA, replicate 1
Method: as §1, §2

[12] = target: T3, OTV4-BSA; assay: monoclonal phage ELISA, replicate 1
Method: as §1, §2

[13] = target: T4, OTV4-OVA; assay: monoclonal phage ELISA, replicate 1
Method: as §1, §2

[14] = target: T5, OTV3-KLH; assay: monoclonal phage ELISA, replicate 1
Method: as §1, §2

[15] = target: T6, OTV5-BSA; assay: monoclonal phage ELISA, replicate 1
Method: as §1, §2

[16] = target: T7, OTV3-OVA; assay: monoclonal phage ELISA, replicate 1
Method: as §1, §2

[17] = target: T8, OTV5-KLH; assay: monoclonal phage ELISA, replicate 1
Method: as §1, §2

[18] = target: T9, OTV3-BSA; assay: monoclonal phage ELISA, replicate 1
Method: as §1, §2

B1: R4P1-C1 (phage Fab clone) (Fab, V domains shown)
VH: QVQLQQSGPGLVKPSQTLSLTCAISGDSVSSNSAAWNWIRQSPSRGLEWLGRTYYRSKWYNDYAVSVKSRITINPDTSKNQFSLQLNSVTPEDTAVYYCARDDYDPVGMYAFDIWGQGTLVTVSS
VL: LPVLTQPPSASGTPGQRVTISCSGSSSNIGSNTVNWYQQLPGTAPKLLIYRNTQRPSGVPDRFSGSKSGTSASLAISGLQSEDEADYYCEAWDDSMRGAAFGGGTQLTVL
notes: also called phage clone R4P1-C1
Q: With B1 as the binder, how does the ELISA signal [1] read?
A: 2.49

Q: What about the ELISA signal [2] of the same binder?
A: 2.51

Q: And the ELISA signal [3]?
A: 2.8

Q: And the ELISA signal [4]?
A: 2.78

Q: And the ELISA signal [5]?
A: 2.94

Q: What about the ELISA signal [6] of the same binder?
A: 2.56

Q: And the ELISA signal [7]?
A: 2.72

Q: What about the ELISA signal [8] of the same binder?
A: 2.58

Q: What about the ELISA signal [9] of the same binder?
A: 2.65

Q: And the ELISA signal [10]?
A: 2.61

Q: And the ELISA signal [11]?
A: 2.81

Q: What about the ELISA signal [12] of the same binder?
A: 2.95

Q: What about the ELISA signal [13] of the same binder?
A: 2.84

Q: And the ELISA signal [14]?
A: 3.13

Q: What about the ELISA signal [15] of the same binder?
A: 2.63

Q: And the ELISA signal [16]?
A: 2.85

Q: And the ELISA signal [17]?
A: 2.74

Q: And the ELISA signal [18]?
A: 2.87
